These results are taken from publication PMC10713552 (Communications Biology, 2023).

Like-named read-outs stand apart in the source and are kept apart here.

Holding throughout (experiment): BLI
The target in assay [1] is T1, Omicron BA.1 spike protein ectodomain (BLI) (SARS-CoV-2 Omicron BA.1, strain).
Assay [2] addresses T2, D614G-Hexapro (WT) spike ectodomain (SARS-CoV-2 Wuhan-Hu-1 D614G, D614G).
The target in assay [3] is Omicron BA.2 spike protein ectodomain (BLI) (SARS-CoV-2, Omicron BA.2, strain). The note with it: both partners purified.
Assay [4] concerns the target Omicron BA.2.12 spike protein ectodomain (BLI) (SARS-CoV-2 Omicron BA.2.12.1, strain). The note with it: both partners purified.
Assay [5] addresses T1, Omicron BA.1 spike protein ectodomain …. The note with it: both partners purified.
In assay [6] the target is Omicron BA.5 spike protein ectodomain (BLI) (SARS-CoV-2 Omicron BA.5 (BA.4/5 spike), strain). The note with it: both partners purified.
In assay [7] the target is T2, D614G-Hexapro (WT) spike ectodomain. Particulars: both partners purified.
In assay [8] the target is SARS-CoV-2 Omicron BA.2.12.1 spike protein ectodomain (SARS-CoV-2 Omicron BA.2.12.1, S373P). Particulars: both partners purified.
The target in assay [9] is SARS-CoV-2 B.1.1.529.1/BA.1 S-HexaPro (SARS-CoV-2, Omicron BA.1, Ser371Leu | Ser373Pro | Ser375Phe | Q493R). The note with it: both partners purified.

B1: N3-1_M (antibody, V domains shown)
VH: QVQLQQWGPGLVNPSETLSLTCSVSGGSFATENYYWSWIRQHPGEGLEWIGNIYFSGNTYYNPSLNNRFTISFDTSKNHLSLKLPSVTAADTAVYYCARGTIYFDMSGYRRVDPFHIWGQGTMVIVSS
VL: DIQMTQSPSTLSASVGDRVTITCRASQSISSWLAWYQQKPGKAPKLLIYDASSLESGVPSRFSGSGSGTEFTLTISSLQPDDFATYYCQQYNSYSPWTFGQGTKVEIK
notes: IgG1
On to B1, for which the Kd in assay [1] turned out to be 0.0332 µM; in [2], 4.42 µM; in assay [3], 0.178 µM; in assay [4], 0.028 µM; in [5] it was 0.428 µM; in assay [6] it was 0.172 µM. Also, in [7], binding was characterised by a dissociation constant (Kd) of 0.00422 µM. The koff in assay [1] was found to be 0.00105 s⁻¹; in [2], 0.00151 s⁻¹; in assay [3], 0.00245 s⁻¹; in [4], 0.000621 s⁻¹; in [5], 0.00368 s⁻¹; in [6] it was 0.00253 s⁻¹. In assay [7], this molecule came in with a koff of 0.000278 s⁻¹. For the same molecule, the kon worked out at 31700 M⁻¹ s⁻¹ in assay [1]; 342 M⁻¹ s⁻¹ in [2]; 13800 M⁻¹ s⁻¹ in assay [3]; 22200 M⁻¹ s⁻¹ in [4]; 8590 M⁻¹ s⁻¹ in assay [5]; 14700 M⁻¹ s⁻¹ in assay [6]. This molecule came in with a kon in [7] of 65900 M⁻¹ s⁻¹.

B2: N3-1_Q (antibody, V domains shown)
VH: QVQLQQWGPGLVNPSETLSLTCSVSGGSFATENYYWSWIRQHPGEGLEWIGNIYFSGNTYYNPSLNNRFTISFDTSKNHLSLKLPSVTAADTAVYYCARGTIYFDQSGYRRVDPFHIWGQGTMVIVSS
VL: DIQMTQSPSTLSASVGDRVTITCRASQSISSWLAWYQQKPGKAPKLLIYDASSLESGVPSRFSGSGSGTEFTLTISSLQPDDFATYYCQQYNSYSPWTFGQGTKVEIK
notes: IgG1
B2: the Kd was 0.483 µM in [3], 0.291 µM in assay [4], 4.8 µM in assay [5] and 0.771 µM in assay [6]. Also, the koff in assay [3] was 0.00403 s⁻¹; in assay [4], 0.00336 s⁻¹; in [5], 0.015 s⁻¹; in assay [6], 0.00666 s⁻¹. Moreover, the kon turned out to be 8360 M⁻¹ s⁻¹ in assay [3]; 11500 M⁻¹ s⁻¹ in assay [4]; 3120 M⁻¹ s⁻¹ in assay [5]; 8640 M⁻¹ s⁻¹ in [6]; 1000 M⁻¹ s⁻¹ in assay [7].

B3: N3-1_L (antibody, V domains shown)
VH: QVQLQQWGPGLVNPSETLSLTCSVSGGSFATENYYWSWIRQHPGEGLEWIGNIYFSGNTYYNPSLNNRFTISFDTSKNHLSLKLPSVTAADTAVYYCARGTIYFDLSGYRRVDPFHIWGQGTMVIVSS
VL: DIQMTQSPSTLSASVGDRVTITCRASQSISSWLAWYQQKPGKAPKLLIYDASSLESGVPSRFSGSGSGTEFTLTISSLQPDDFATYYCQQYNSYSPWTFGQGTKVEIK
notes: IgG1
Consider B3, for which the Kd in assay [1] is 15.2 µM; in assay [2] it was 0.0541 µM; in assay [3], 0.273 µM; in assay [4], 0.173 µM; in assay [5] it was 0.66 µM; in [6], 0.414 µM. In addition, the Kd in [7] was determined as 0.006 µM. The koff came out at 0.00357 s⁻¹ in [1]; 0.00037 s⁻¹ in [2]; 0.00415 s⁻¹ in assay [3]; 0.00339 s⁻¹ in [4]; 0.00429 s⁻¹ in assay [5]; 0.00689 s⁻¹ in assay [6]. Further, the koff in assay [7] is 0.00047 s⁻¹. Also, the kon in [1] was determined as 234 M⁻¹ s⁻¹; in assay [2], 6840 M⁻¹ s⁻¹; in assay [3], 15200 M⁻¹ s⁻¹; in [4], 19500 M⁻¹ s⁻¹; in assay [5], 6490 M⁻¹ s⁻¹; in assay [6], 16600 M⁻¹ s⁻¹. The molecule further registered a kon in assay [7] of 78300 M⁻¹ s⁻¹.

B4: N3-1_I (antibody, V domains shown)
VH: QVQLQQWGPGLVNPSETLSLTCSVSGGSFATENYYWSWIRQHPGEGLEWIGNIYFSGNTYYNPSLNNRFTISFDTSKNHLSLKLPSVTAADTAVYYCARGTIYFDISGYRRVDPFHIWGQGTMVIVSS
VL: not shown
notes: IgG1; copies: 2 + 2
For the molecule B4, the “fold improvement in Kd against wild-type N3-1” value worked out at 20 fold in assay [8] and 4 fold in assay [9].

B5: N3-1_Y (antibody, V domains shown)
VH: QVQLQQWGPGLVNPSETLSLTCSVSGGSFATENYYWSWIRQHPGEGLEWIGNIYFSGNTYYNPSLNNRFTISFDTSKNHLSLKLPSVTAADTAVYYCARGTIYFDYSGYRRVDPFHIWGQGTMVIVSS
VL: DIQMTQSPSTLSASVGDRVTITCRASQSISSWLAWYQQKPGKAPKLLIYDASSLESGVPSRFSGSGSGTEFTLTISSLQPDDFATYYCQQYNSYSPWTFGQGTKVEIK
notes: IgG1
For the molecule B5, the Kd in [1] was 3.55 µM; in assay [2], 0.233 µM; in [3], 0.225 µM; in assay [4], 0.142 µM; in assay [5], 0.709 µM; in assay [6] it was 0.337 µM. The molecule further returned a Kd in assay [7] of 0.00545 µM. Further, the koff was found to be 0.00213 s⁻¹ in assay [1]; 0.000325 s⁻¹ in assay [2]; 0.00447 s⁻¹ in assay [3]; 0.00385 s⁻¹ in assay [4]; 0.00791 s⁻¹ in assay [5]; 0.0072 s⁻¹ in assay [6]. In addition, the koff in assay [7] was found to be 0.000748 s⁻¹. For the same molecule, the kon in assay [1] was 600 M⁻¹ s⁻¹; in assay [2], 1400 M⁻¹ s⁻¹; in [3], 19900 M⁻¹ s⁻¹; in assay [4], 27100 M⁻¹ s⁻¹; in [5], 11200 M⁻¹ s⁻¹; in assay [6] it was 21300 M⁻¹ s⁻¹. In addition, in assay [7], the kon worked out at 137000 M⁻¹ s⁻¹.

B6: N3-1_I (antibody, V domains shown)
VH: QVQLQQWGPGLVNPSETLSLTCSVSGGSFATENYYWSWIRQHPGEGLEWIGNIYFSGNTYYNPSLNNRFTISFDTSKNHLSLKLPSVTAADTAVYYCARGTIYFDISGYRRVDPFHIWGQGTMVIVSS
VL: not shown
notes: IgG1
As to B6, the Kd in assay [1] turned out to be 0.0204 µM; in [2] it was 1.22 µM; in assay [3], 0.121 µM; in assay [4], 0.0769 µM; in assay [5] it was 0.331 µM; in assay [6] it was 0.145 µM. Moreover, the koff was determined as 0.00136 s⁻¹ in [1]; 0.000796 s⁻¹ in [2]; 0.00146 s⁻¹ in [3]; 0.00112 s⁻¹ in [4]; 0.00193 s⁻¹ in assay [5]; 0.00168 s⁻¹ in [6]. Besides, the kon amounted to 66700 M⁻¹ s⁻¹ in assay [1]; 651 M⁻¹ s⁻¹ in assay [2]; 12100 M⁻¹ s⁻¹ in [3]; 14600 M⁻¹ s⁻¹ in [4]; 5820 M⁻¹ s⁻¹ in assay [5]; 11600 M⁻¹ s⁻¹ in assay [6]. In assay [7], this molecule returned a kon of 76000 M⁻¹ s⁻¹.

B7: N3-1_V (antibody, V domains shown)
VH: QVQLQQWGPGLVNPSETLSLTCSVSGGSFATENYYWSWIRQHPGEGLEWIGNIYFSGNTYYNPSLNNRFTISFDTSKNHLSLKLPSVTAADTAVYYCARGTIYFDVSGYRRVDPFHIWGQGTMVIVSS
VL: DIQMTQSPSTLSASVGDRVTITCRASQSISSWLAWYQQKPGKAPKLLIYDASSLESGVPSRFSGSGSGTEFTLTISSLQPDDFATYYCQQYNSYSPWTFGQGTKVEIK
notes: IgG1
Consider B7, for which the Kd in assay [3] turned out to be 0.704 µM; in [4], 0.421 µM; in assay [5], 1.34 µM; in [6], 1.47 µM; in assay [7], 0.00378 µM. The koff in [3] stood at 0.00681 s⁻¹; in [4], 0.00542 s⁻¹; in assay [5] it was 0.00726 s⁻¹; in assay [6] it was 0.0163 s⁻¹; in assay [7], 0.00023 s⁻¹. In addition, the kon worked out at 9670 M⁻¹ s⁻¹ in assay [3]; 12900 M⁻¹ s⁻¹ in [4]; 5410 M⁻¹ s⁻¹ in assay [5]; 11100 M⁻¹ s⁻¹ in [6]; 60900 M⁻¹ s⁻¹ in assay [7].
